From paper PMC9173649 (2022)

Assays:
[1] = target: T1, C1q purified from human serum (human, UniProt P02745 23-245; P02746 28-253; P02747 29-245); assay: BLI; 2:1 heterogeneous ligand model, KD2 (second site)
[2] = target: T1, C1q purified from human serum; assay: BLI; 2:1 heterogeneous ligand model, kd1 (first site)
[3] = target: T1, C1q purified from human serum; assay: BLI; 2:1 heterogeneous ligand model, kd2 (second site)
[4] = target: T1, C1q purified from human serum; assay: BLI; 2:1 heterogeneous ligand model, KD1 (first site)

T1 sequence (P02745 23-245, chain 1 of 3): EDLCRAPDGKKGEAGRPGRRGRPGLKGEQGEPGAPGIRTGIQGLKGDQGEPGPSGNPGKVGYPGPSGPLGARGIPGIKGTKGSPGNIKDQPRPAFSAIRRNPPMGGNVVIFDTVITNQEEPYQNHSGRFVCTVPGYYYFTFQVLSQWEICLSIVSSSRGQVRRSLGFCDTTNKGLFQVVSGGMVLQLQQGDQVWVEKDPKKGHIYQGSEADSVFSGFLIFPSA
T1 sequence (P02746 28-253, chain 2 of 3): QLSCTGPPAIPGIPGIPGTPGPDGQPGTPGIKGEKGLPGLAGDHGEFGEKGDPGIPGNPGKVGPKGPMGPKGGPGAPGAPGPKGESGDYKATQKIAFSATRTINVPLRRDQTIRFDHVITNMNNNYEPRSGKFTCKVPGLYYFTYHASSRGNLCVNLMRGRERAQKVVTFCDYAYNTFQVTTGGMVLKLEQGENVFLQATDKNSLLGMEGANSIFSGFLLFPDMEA
T1 sequence (P02747 29-245, chain 3 of 3): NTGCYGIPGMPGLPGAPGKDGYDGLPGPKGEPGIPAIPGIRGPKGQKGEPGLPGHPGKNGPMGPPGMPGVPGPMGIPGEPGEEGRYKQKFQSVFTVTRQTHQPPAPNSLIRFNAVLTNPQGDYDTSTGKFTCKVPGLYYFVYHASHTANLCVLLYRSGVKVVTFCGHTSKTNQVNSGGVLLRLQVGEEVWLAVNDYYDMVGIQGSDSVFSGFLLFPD

B1: C1r2C1s2 catalytic tetramer (complex)
chain 1: SIPIPQKLFGEVTSPLFPKPYPNNFETTTVITVPTGYRVKLVFQQFDLEPSEGCFYDYVKISADKKSLGRFCGQLGSPLGNPPGKKEFMSQGNKMLLTFHTDFSNEENGTIMFYKGFLAYYQAVDLDECASRSKSGEEDPQPQCQHLCHNYVGGYFCSCRPGYELQEDTHSCQAECSSELYTEASGYISSLEYPRSYPPDLRCNYSIRVERGLTLHLKFLEPFDIDDHQQVHCPYDQLQIYANGKNIGEFCGKQRPPDLDTSSNAVDLLFFTDESGDSRGWKLRYTTEIIKCPQPKTLDEFTIIQNLQPQYQFRDYFIATCKQGYQLIEGNQVLHSFTAVCQDDGTWHRAMPRCKIKDCGQPRNLPNGDFRYTTTMGVNTYKARIQYYCHEPYYKMQTRAGSRESEQGVYTCTAQGIWKNEQKGEKIPRCLPVCGKPVNPVEQRQRIIGGQKAKMGNFPWQVFTNIHGRGGGALLGDRWILTAAHTLYPKEHEAQSNASLDVFLGHTNVEELMKLGNHPIRRVSVHPDYRQDESYNFEGDIALLELENSVTLGPNLLPICLPDNDTFYDLGLMGYVSGFGVMEEKIAHDLRFVRLPVANPQACENWLRGKNRMDVFSQNMFCAGHPSLKQDACQGDSGGVFAVRDPNTDRWVATGIVSWGIGCSRGYGFYTKVLNYVDWIKKEMEEED
chain 2: EPTMYGEILSPNYPQAYPSEVEKSWDIEVPEGYGIHLYFTHLDIELSENCAYDSVQIISGDTEEGRLCGQRSSNNPHSPIVEEFQVPYNKLQVIFKSDFSNEERFTGFAAYYVATDINECTDFVDVPCSHFCNNFIGGYFCSCPPEYFLHDDMKNCGVNCSGDVFTALIGEIASPNYPKPYPENSRCEYQIRLEKGFQVVVTLRREDFDVEAADSAGNCLDSLVFVAGDRQFGPYCGHGFPGPLNIETKSNALDIIFQTDLTGQKKGWKLRYHGDPMPCPKEDTPNSVWEPAKAKYVFRDVVQITCLDGFEVVEGRVGATSFYSTCQSNGKWSNSKLKCQPVDCGIPESIENGKVEDPESTLFGSVIRYTCEEPYYYMENGGGGEYHCAGNGSWVNEVLGPELPKCVPVCGVPREPFEEKQRIIGGSDADIKNFPWQVFFDNPWAGGALINEYWVLTAAHVVEGNREPTMYVGSTSVQTSRLAKSKMLTPEHVFIHPGWKLLEVPEGRTNFDNDIALVRLKDPVKMGPTVSPICLPGTSSDYNLMDGDLGLISGWGRTEKRDRAVRLKAARLPVAPLRKCKEVKVEKPTADAEAYVFTPNMICAGGEKGMDSCKGDSGGAFAVQDPNDKTKFYAAGLVSWGPQCGTYGLYTRVKNYVDWIMKTMQENSTPRED
[1]
  Kd: 4.33 nM
[2]
  koff: 0.000402 s⁻¹
[3]
  koff: 0.00928 s⁻¹
[4]
  Kd: 10 nM
